Experimental data published in paper PMC5404276 (ACS Chemical Biology, 2017).

Experiments:
[1] = biological target: human mitochondrial cysteine desulfurase NFS1 (human); assay: amino acid analysis + other: SAXS
human ISD11-His6 (human) = human ISD11-His6 (human) (UniProt Q9HD34); assay: amino acid analysis + other: SAXS
[2] = biological target: [Acp]2:[ISD11]2:[NFS1]2 cysteine desulfurase complex (human | E. coli) (UniProt Q9HD34); assay: SEC + other: amino acid analysis + other: SAXS
human ISD11-His6 = human ISD11-His6 (human, UniProt Q9HD34 1-91); assay: amino acid analysis + other: SAXS
Sequence of human ISD11-His6 (Q9HD34 whole entry): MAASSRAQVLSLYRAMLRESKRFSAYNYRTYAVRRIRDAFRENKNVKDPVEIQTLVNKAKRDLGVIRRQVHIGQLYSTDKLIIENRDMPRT

Sequence of human mitochondrial cysteine desulfurase NFS1 (human) (Q9Y697 whole entry): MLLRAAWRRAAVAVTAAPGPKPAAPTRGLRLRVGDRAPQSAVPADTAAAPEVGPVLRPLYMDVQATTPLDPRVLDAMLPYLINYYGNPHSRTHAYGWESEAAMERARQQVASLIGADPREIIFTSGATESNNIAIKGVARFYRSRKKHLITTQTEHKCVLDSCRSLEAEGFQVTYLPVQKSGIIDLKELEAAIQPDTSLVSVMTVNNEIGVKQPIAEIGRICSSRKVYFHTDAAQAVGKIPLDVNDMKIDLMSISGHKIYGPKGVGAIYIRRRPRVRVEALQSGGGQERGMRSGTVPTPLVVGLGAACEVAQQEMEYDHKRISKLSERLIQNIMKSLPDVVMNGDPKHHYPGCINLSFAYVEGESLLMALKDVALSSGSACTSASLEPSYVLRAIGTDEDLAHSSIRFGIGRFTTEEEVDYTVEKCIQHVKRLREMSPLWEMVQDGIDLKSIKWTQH
Sequence of human ISD11-His6 (human) (Q9HD34 whole entry): as the sequence (Q9HD34 whole entry) above
Sequence of [Acp]2:[ISD11]2:[NFS1]2 cysteine desulfurase complex (human | E. coli) (Q9HD34 whole entry, looked up, one chain of several): as the sequence (Q9HD34 whole entry) above

holo-form of E. coli acyl carrier protein (Acp) (from UniProt P0A6A8 1-78) (natural protein)
stoichiometry N [1]: 1

human mitochondrial cysteine desulfurase NFS1 (enzyme)
stoichiometry N (human ISD11-His6 (human)): 1

human frataxin FXN81-210 (mature form of frataxin) (from UniProt Q16595 81-210) (natural protein)
stoichiometry N [2]: 2

B1: holo-form of E. coli acyl carrier protein (Acp) (natural protein, UniProt P0A6A8 1-78, looked up)
chain: MSTIEERVKKIIGEQLGVKQEEVTNNASFVEDLGADSLDTVELVMALEEEFDTEIPDEEAEKITTVQAAIDYINGHQA
modifications: 4'-phosphopantetheine conjugated to S37
stoichiometry N (human ISD11-His6): 1
